# Measured values: US5444041A, “Convertible microemulsion formulations” (Ibah, Inc., priority 1992, dated 1995)
# What was measured:
# Spraque-Dawley rats = assay: Rectal instillation of calcitonin microemulsions, serum Ca+2 in rats; format: in vivo, rat
# Experimental: A series of experiments was carried out in rats using the w/o microemulsions of this invention to evaluate them as a vehicle for the rectal delivery of the peptide calcitonin, (used in the treatment of hypercalcemia by lowering Ca++ serum levels), whereby the body fluids of the rat would serve to convert the microemulsion to an o/w emulsion and thus release the calcitonin.
# Formulations were produced which ranged from 3% to 15% (v/v) aqueous phase and which ranged from liquids to gels at room temperature. The formulations contained, in addition to the aqueous phase, one to three oils and a blend of two emulsifiers. […] Three formulations with different oil blends were chosen for biological evaluation in juvenile, male rat model (Spraque-Dawley rats; 140-170 gm).
# Three w/o microemulsion formulations were tested which contained 3% v/v aqueous phase volume, and varying amounts of calcitonin/ml of emulsion. Two, Formulations A and B below, were formulated as liquids; the third microemulsion (Formulation C) was formulated in semi-solid (suppository) form by addition of a high-melting coconut oil to the microemulsion. […]
# Serum was prepared from each blood sample and serum Ca^+2 (free ionized calcium) levels were determined using a Beckman calcium clinical assay kit.
# [1] = Percent activity of horseradish peroxidase (OPD assay, 492 nm) after storage at 50° C.; format: physicochemical
# Experimental: In Example 10, the protein horseradish peroxidase (HRP), was stored for given times and temperatures, then assayed in vitro, as shown in this example.
# After storage for the specified time at 50° C., the microemulsion was then converted to an o/w emulsion by the addition of water. This was achieved by pipetting 30 μL of the microemulsion containing the horseradish peroxidase enzyme into 970 μL of 0.9 wt. % saline (NaCl) solution.
# After conversion, the emulsion was then assayed for activity. This activity was compared with the activity of stock solutions of HRP which had been maintained at 50° C. for the same time and then pipetted into saline (30 μL into 970 μL of saline) in the same manner as the microemulsion above. The stock HRP was first diluted to the same HRP concentration as in the aqueous phase of the converted microemulsion.
# The assay was carried out as follows:
# 1. Set spectrophotometer at 492 nm and 25° C.
# 2. Into the cuvette, pipet 2.97 mL OPD (O-phenylene diamine) buffer solution (1 tab.→26 mL)
# 3. Establish blank at 492 nm.
# 4. Into the cuvette, pipet 25 μL diluted control HRP solution. Mix and record the increase in absorbance at 492 nm for 5 minutes.
# 5. Same procedure is followed for microemulsion w/HRP solution. OPD=O-phenylene diamine
# Percent activity was determined by using the following equation: [formula]
# [2] = rat, in vivo
# Experimental: A series of experiments was carried out using rats with the w/o microemulsion of this invention to evaluate them as a vehicle for the delivery of the human growth hormone, hGH. The body fluids of the rats served to convert the microemulsion to an o/w emulsion which activated the drug and promoted drug uptake across the mucosal membrane of the rat colon.
# The rats were approximately 100 grams and were fasted for 24 hours prior to testing.
# The injected group, Group C, received the extracted hGH in a buffer solution at the human equivalent dose of 0.05 mg/kg body weight. The two rectal administration groups, Groups A and B, received ten times the human equivalent dose.
# The rats were anaesthetized just prior to dosing. Suppositories (Group A) and the buffer solution (Group B) administered rectally were sealed in the rectum by a plug and liquid cement. Group C animals were injected subcutaneously (SQ). After administering the dosage, serum hGH levels were determined at 30, 60, 120, 180, 240, and 300 minutes. […] The blood was centrifuged and the serum assayed by hGH ELISA (Medix Lab, Foster City, Calif.) for quantitation of the extracted growth hormone.
# The AUC (area under the curve) for both routes of administration was determined using the trapezoid rule (M. Gibaldi, Biopharmaceutics and Clinical Pharmacokinetics, Lea and Febiger, Philadelphia, Pa., 1984, pp. 315-16). […]
substance,measurement,setting,value
calcitonin [Saline],serum calcium response to rectal administration (in words),Spraque-Dawley rats,no significant response
horseradish peroxidase [Control HRP],% Activity,"[1]; Time 0 hours, converted with saline before assay",100%
same,% Activity,[1]; Time 3 hours,76%
same,% Activity,[1]; Time 6 hours,73%
same,% Activity,[1]; Time 24 hours,20%
same,% Activity,[1]; Time 27 hours,20%
same,% Activity,[1]; Time 48 hours,11%
human growth hormone [Group C],"AUC (area under the curve), trapezoid rule",[2],approximately 24.5 ng-hr/ml
human growth hormone [hGH in buffer],uptake of the drug,[2],no uptake of the drug
